Assay: yeast display, Sf9 membrane polyspecificity reagent, FACS + sequencing; frameworks hold sequencing errors
Procedure, shortened: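 Nanobodies came from a synthetic yeast display library in Saccharomyces cerevisiae BJ5465, induced with galactose for 36–48 hours and stained for 1 hour at 4 °C with 10% biotinylated, detergent-solubilized Sf9 membrane reagent. Cells were enriched on streptavidin microbeads and then FACS-sorted, with low and high (top ~1%) gates set on anti-HA fluorescence for expression and streptavidin fluorescence for reagent binding. Each polyreactivity label reflects the gate a clone came from. Genes were amplified by colony PCR, sequenced by MiSeq 2 × 250 and filtered by CDR length.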

Row | Sequence | polyreactivity (PSR sort gate)
1 | QVQLVESGGGLVQAGGSLRLSCAASGSILFTNAMGWYRQAPGKERELVAAISSGGSTYYADSVKGRFTISRDNAKNTVYLQMNSLKPEDTAVYYCAADQLNVGREYVEYDYWGQGTQVTVSS | low polyreactivity
2 | QVQLVESGGGFVQAGGSLRLSCASSGRTFHYYAMGWYRQAPGKERELVAAISFDGGTTYYADSVKGRFTISRDNAKNTVYLHMNSPKPEDTAVYYCNALRYRDRVGYNYWGQGTQVTVSS | high polyreactivity
3 | QVQLVESGGGLVQAGGSLRLSCAASGFIFTDNVMGWYRQAPGKERELVAAISRRGGSTYYADSVKGRFTISRDNAKNTVYLQMNSLKPEDTAVYYCNVARQSYLLDYWGQGTQVTVSS | high polyreactivity
4 | QVQLVESGGGLVQAGGSLRLSCAASGSTFARNARGWYRQAPGKERELVAAITTRGSSTYYADSVKGRFTISRDNAKNTVYLQMHSLKPEDTAVYYCAADSRRSWYWGGYRQTGMGYWGQGTQVTVSS | high polyreactivity
5 | QVQLVESGGGLVQAGGSLRLSCAASGFILFFNAMGWYRAPWKERELVAGITQSGGSTYYADSVKGRFTISRDNAKNPVYLQMNSLKPEDTAVYYCAAELYDRWSRMDYWGQGTQVTVSS | low polyreactivity
6 | QVQLVESGGGLVQAGGSLRLSCAASGNTFTAYAMGWYRQAPGKERELVAAISSSGRTNYADSVKGRFTISRDNAKNTVYLQMNSLKPEDTAVYYCAAYRLSKPFYKYDYWGEGTQVTVSS | high polyreactivity
7 | QVHLVESGGGLVQAGGSLRLSCAASGSIIGKYAMGWYRQAPGKERELVADITNSGGSTYYADSVKGRFTISRDNAKNTVYLQMNSLKPEDTAVYYCAADYLYPPYYEFYFWGQGTQVTVSS | low polyreactivity
8 | QVQLVESGGGLVQPGGSLRLSGAASGRILTYYAMGWYRQAPGKERELFAAISWRAGSTYYADSVKGRFTISRDNAKNTVYLQMNSLKPEDTAVYYCAAKPYYIPTRTYSHYNYWGQGTLVTVSS | high polyreactivity
9 | QVQLVESGGGLVQAGGSLRLSCAASGITFVDYAMGWYRQAPGKEWELVAAITTGGSTNYADSVKGRFTISRDNAKNTVYLQMNRLKPEDTAVYYCNKRPVILYDYWGQGTQVTVSS | low polyreactivity
10 | QVQLVESGGGLLQAGGSLRLSCAASGSIFRRNAMGWYRQAPGKERELVAAIRRGGSTNYADSVKGRFTISRDNAKNTVYLQMNSLKPEDTAVYYCAARGGSSGFYYWGQGTQVTVSS | high polyreactivity
11 | QVQLVESGAGIVQAGGSLRLSCAASGYTFQHYAMGWYRQAPGKERELVAAITRRGSGTYYADSVKGRFTISRDNAKNTVYLQMNSLKPEDTAVYYCGADWYYGDEYEYWGQGTQVNVSS | high polyreactivity
12 | QVQLVESGGGLVQAAGSLRLSCAASGYTFGYYAMGWYRQAPGKERELVAAINWSGGSTYYADSVKGRFTISRDNEKNSVYLQMYSLKPEDTAVYYCAAQSRSPGYYYWGQGTQVTVSS | high polyreactivity
13 | QVQLVESGGGLVQAGGSLRLSCAASGFTFVSYAMGWYRQEPGKEREFVASISARGGNTFYADSVKGRFTISRDNAKNTVYLQMNSLKPEDTAVYYCAKRGPYGTGYGYWGQGTQLTVSS | high polyreactivity
14 | QVQLVESGGGLVQAGGSLRLSCAASGSTFGIYVMGWYRQAPGKERELVADISSSGGSTYYADSVKGRFTISRDNAKNTVYLQMNSLKPEDTAVYYCNAYHWDGDGVFYEYDYWGQGTQVTVSS | high polyreactivity
15 | QVQLVESGGGLVQAGGSLRLSCAASGRTFYYYAMGWYRQAPGKERELVAGISWSAGSTYYADSVKGRFTISRDYAKNTVYLQMNSLKPEDTAVYYCAARYWQSYRSQVTHSSTLDYWGQGTQVTVSS | low polyreactivity
16 | QVQLVESGGGLVQAGGSLRLSCAASGFTFWYYAMGWYRQAPGKERELVASISSIGGSTYYADSVKGRFTISRDNAKNTVYLQMNSLKPEDTAVYYCAADRSSNGLMPGSKNEYWGQGTEVTVSS | high polyreactivity
17 | QVQLVESGGGLVQAGGSLRLSCAATGRIFSFYAMGWYRQAPGKERELVAAITWGDGSTYYAVSVKGRFTISRDNAKNTVYLQMNSLKPEDTAVYYCNKTYIDTTVYDVIMDYWGQGTQVTVSS | low polyreactivity
18 | QVQLVESGGGLVQAGGSLRLSCAASGSTFASYAMGWYRQAPGKERELVAAIRWRGGTTYYADSVKGRFTISRDNAKNTVNLQMNSLKPEDTAVYYCNADRYYLYYFWGQGTQVTVSS | low polyreactivity
19 | LVQLQESGGCLVLAGGGLRLSCAASGNIFTYVIMGWYRQPPGKERELVAAITYGTITNYADSVKGPFTISRDNAKNTVYMQMNCLKPEDTAVYHCAVQSPRIEPRLYYWGQGTQVTVSS | high polyreactivity
20 | QVQLVESGGGLGQAGGSLRLSCAASGFTFPWYAMGWYRPAPGKERELVASISYRGDSTYYADSVKGRFTISRDNAKNTVYLEMNSLKPEDTAVYYCNNSLASYYLPGFDYWGQGTQVTVSS | low polyreactivity
21 | QVQLEESGGGLVQAGGSLRLSCAASGSTFHTYAMGWYRQAPGKERELVASISYGVTTYYADSVKGRFTISRDNAKNTVYLQMNSLTPEDTAVYYCAREGYNWVYLSYGYWGQGTQVTVSS | low polyreactivity

Row | Sequence | polyreactivity (PSR sort gate)
22 | QVQLVESGGGLVQAGGSLRLSCAASGRTFRKYAMGWYRQAPGKERELVAAISWSGGSRYYANSVKGRFTISRDNAKNTVYLQMNSLKPEETAVYYCSAVPVHTGSLYWGFTTGYDYWGQGTQVTVSS | low polyreactivity
23 | QVQLVESGAGLVQAGGSLRLSCAASGSIFDDYAMGWSRQAPGKESELVAAISSSGTSTYYADSVKGRFTISRDNAKNTVYLQMNSLKPEDTAVYYCNRGLAARVGSGDYWGQGTQVTVSS | low polyreactivity
24 | QVQLVESGGGLVQAGGSLRLSCAASGSTFPYYAMGWYRQAPGKERELVAAISSSGGSTYYADSVKGRFTISRDNANNTVYLQMNSLKPEDTAVYYCATSSLYRYWHRYDYWGQGTQVTVSS | high polyreactivity
25 | QVQLVESGGGLVQAGGSLRLSCAASGFIFVRYAMGWYRQAPGTERELVASITRSGGSTYYADSVKGRFTISRDNAKNTVYLQLNSLKPEDSAVYYCAASYYRSRGSTYGYWGQGTQVTVSS | high polyreactivity
26 | QVQLVESGGGLVQAGGSLRLICAASGLTFKSNTMGWYRQAPGKERELVAAISRSGGRTYYADSVKGRFTLSRDNAKNTVYLQMNSLKPEDTAVYYCAALYHTYLTWREDYWGQGTQVTVSS | high polyreactivity
27 | QVQLVESGGGLVQAGGSLRLSCAASGSIFAGNAMGWYRQAPGKEREFVAAITWSGGSTYYADSVKGRFTISRDNAKNTVYLQMNSLKPEDTAVYYCAARAYKRKTYYYWGQGTQVTVSS | high polyreactivity
28 | QVQLEESGGGLVQAGGSLRLSCAASGSIFYSNAMGWYRQAPGKERELVATIRSGGTTYYADSVKGRFTISRDNAKNTVYLQMNSLKPEDTAVYYCAKRYGVKYWGQGTQVTVES | high polyreactivity
29 | QVQLVESGGGLVQAGGSLRLRCAASGRTIGPYAMGWYRQEPRKERELVAAISWSGGSTYYADSVKGRFTISRDNAKNTVYLQMNSLKPVDTAVYFCAAVYYSHVYYWGQGTQVTVSS | high polyreactivity
30 | QVQLVESGGGLVQAGGSLRLSCAASGFIFCINAMGWYRQAPGKERELVAAISRSGGRTYYADSVKGRFTISRDNAKNTVYLQMNSLKPEDTAVYYCAADKASYTNYDGDYWGQGTQVTVSS | high polyreactivity
31 | QVQLVESGGGLVQAGGSLRLSCAASGRIFIYNDMGWYRQAPGKERELVAAITFIDDSTNYADSVKGRFTISRDNAKYSVYLQMNRLKPEDTAVYYCAARLYSSASGVRWIKFDYWGQGTQVTVSS | low polyreactivity
32 | QVQLVESGEGLVQAGGSLRLSCAASGIFPYNAMGWYRQAPGKEREFVAGISRRGGSTYYADSVKGRFTISRDNAKNTVYLQMNSLKPEDTAVYYCAAGTYHKVVRRWASYYYWGQGTQVTVSS | high polyreactivity
33 | QVQLVESGGGLVQAGGSLRLSCAASGRIFAFYALGWYIQAPGKERELVAAISWSDDITYYADSVKGRFTISRDNAKNTVYSQMNSLKPEDTAVYYCAYRRRGYAFSSDYWGQGTQVTVSS | high polyreactivity
34 | QVQLVESGGGLVQAGGSLRLSCAASGLTFGRYTMGWYRQAPGKERELVAAISYSGGSTYYADSVKGRFTISRDNAKNTVYLQMNSLKPEDTAVYYCAKRWTGLGGYYYWGQGTQVTVSS | high polyreactivity
35 | QVQLVESGGGLVQAGGSLRLSCAASGYTFGGNAMGWYRQAPGKERELVAAISNTGGRTNYADSVKGRFTISRDNAKNTVYLQMNSLKPEDTAVSYCAKSVYYRDRYGGDYWGQGTQVTVSS | low polyreactivity
36 | QVQLVESGGGLVQARGSLRLICAASVQIFRVYAMGWSRQAPGKEREFVAAMTYDGGNTYYADSVKGRFTISRDNAKNTVYLQMLSLKPEDTAVYYCAKDYGEWGQGTQVTVSS | low polyreactivity
37 | QVQLVESGGGLVQAGGSLRLSCAASGSIFTRYAMGWYRQAPGKERELVAAIRTSGGSTYYADSVKGRFTISRDNAKNTVYLQMNSLKPEDTAVYYCARRYYKSNFYYWGQGTQVTVSS | high polyreactivity
38 | QVQLVESGGGLVQAGGSLRLSCAASGIIFQYYAMGWYRPAPGKEREWVAAITSSGDRTYYADSVKGRFTISRDNAKNNVILQMNSLNPEDTAVYYCNAVYYLDYHYGYEFGYWGQGTQVTVSS | high polyreactivity
39 | QVQLVESGGGLVQAGGSLRLSCAASGSIYPYYAKGWNRPAPRKERELFAAIDSGGSTNYADSLKGRFSITRDNAKNRVYLQLNSLIPEDTAVFYCADDVYWFAYVWSKYVFWGQGTHVTVSS | low polyreactivity
40 | QVQLVESGGGLVQAGGSLRLSCAASGRIFPGYAMGWYRQAPGKERELVAAISWIGGDTYYADSVKGRFTISRDNAKNTVYLQMNSLKPEDTAVYYCAARYGRHRVSWYATWRYGYWGQGTQVTVSS | low polyreactivity
41 | QVKLVESGGVLVQAGGSLRLSCAASGRIFGTYAMGWYRQAPGKERELVASISYSDGSTYADSVKGRFTISRDNAKNTVYLQMNSLKPEDTAVYYCAADVYYYAQCEDGYWGQGTQVTVSS | low polyreactivity
